Measured values as given in the supplement of paper PMC11811203.

B1: THAP1; numbered along this chain (parent)
chain: MVQSCSAYGCKNRYDKDKPVSFHKFPLTRPSLCKEWEAAVRRKNFKPTKYSSICSEHFTPDCFKRECNNKLLKENAVPTIFLCTEPHDKKEDLLEPQEQLPPPPLPPPVSQVDAAIGLLMPPLQTPVNLSVFCDHNYTVEDTMHQRKRIHQLEQQVEKLRKKLKTAQQRCRRQERQLEKLKEVVHFQKEKDDVSERGYVILPNDYFEIVEVPA

Variants of: B1
Experiment: THAP1 transcriptional activity (GFP+/GFP- enrichment relative to wild-type constructs) (ratio to WT); higher = more THAP1 activity (PSMB5 reporter activation)
Settings: with PSMB5 promoter-GFP reporter
How it was run: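 Variants were counted by Illumina sequencing of genomic DNA amplicons from BFP+ cells sorted into GFP-bright and GFP-dim bins five days after lentiviral transduction, in duplicate at MOI ~0.3. The library changed each of residues 2–213 of human THAP1 to all 20 amino acids and was introduced into THAP1-knockout HEK-293T cells with mClover3 knocked in at endogenous PSMB5. Activity equals the replicate-mean bright/dim read fold change over the mean of wild-type synonymous constructs.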

| Variant | THAP1 transcriptional activity |
| --- | --- |
| E207H | 0.501 |
| E207N | 0.625 |
| E207I | 0.667 |
| E207G | 0.488 |
| E207M | 0.796 |
| E207C | 1.11 |
| E207A | 0.721 |
| E207P | 0.59 |
| E207Q | 1.02 |
| E207L | 1.2 |
| E207T | 0.557 |
| E207R | 0.5 |
| E207Y | 1.02 |
| E207F | 0.867 |
| E207S | 0.559 |
| E207D | 0.615 |
| E207V | 1.29 |
| V193D | 0.999 |
| V193C | 1.04 |
| V193T | 1.25 |
| V193K | 0.694 |
| V193A | 0.82 |
| V193E | 0.835 |
| V193F | 1.06 |

| Variant | THAP1 transcriptional activity |
| --- | --- |
| V193M | 0.559 |
| V193G | 1.08 |
| V193I | 0.883 |
| V193N | 1.24 |
| V193H | 0.804 |
| V193Y | 0.789 |
| V193L | 1.21 |
| D192N | 0.81 |
| D192F | 0.716 |
| D192L | 1.22 |
| D192V | 1.22 |
| D192G | 1.19 |
| D192M | 1.27 |
| D192E | 0.835 |
| D192H | 0.799 |
| D192R | 0.932 |
| D192W | 1.13 |
| D192T | 1.12 |
| D192C | 0.816 |
| D192I | 0.817 |
| D192S | 0.615 |
| D192Q | 1.23 |
| R196A | 0.861 |
| R196V | 1.54 |

| Variant | THAP1 transcriptional activity |
| --- | --- |
| R196D | 0.823 |
| R196T | 1.47 |
| R196W | 0.521 |
| R196Y | 1.11 |
| R196N | 0.869 |
| R196H | 1.21 |
| R196E | 1.34 |
| R196K | 0.966 |
| R196M | 0.811 |
| R196S | 1.36 |
| R196Q | 1.73 |
| K190L | 0.835 |
| K190D | 0.645 |
| K190T | 1.35 |
| K190I | 1.48 |
| K190E | 0.903 |
| K190H | 0.708 |
| K190C | 1.06 |
| K190S | 0.846 |
| K190W | 0.724 |
| K190F | 0.86 |
| K190P | 0.901 |
| K190V | 1.21 |
| K190Y | 0.762 |

| Variant | THAP1 transcriptional activity |
| --- | --- |
| K190Q | 0.807 |
| K190R | 0.923 |
| K190M | 0.557 |
| K190G | 0.878 |
| V199W | 0.95 |
| V199T | 0.697 |
| V199Q | 0.623 |
| V199G | 0.935 |
| V199N | 0.42 |
| V199C | 0.947 |
| V199H | 0.609 |
| V199K | 0.555 |
| V199E | 0.701 |
| V199R | 0.478 |
| V199M | 0.728 |
| V199Y | 0.918 |
| V199A | 0.703 |
| V199L | 0.908 |
| I200K | 0.283 |
| I200L | 1.27 |
| I200R | 0.412 |
| I200E | 0.762 |
| I200P | 0.688 |
| I200A | 0.558 |

| Variant | THAP1 transcriptional activity |
| --- | --- |
| I200Q | 1.09 |
| I200M | 0.751 |
| I200W | 0.555 |
| I200D | 0.703 |
| I200C | 0.615 |
| I200V | 1.05 |
| I200H | 0.546 |
| I200Y | 0.548 |
| I200T | 0.694 |
| I200F | 0.819 |
| E189D | 1.2 |
| E189V | 0.53 |
| E189L | 1.33 |
| E189N | 0.878 |
| E189S | 1.03 |
| E189W | 1.16 |
| E189A | 1.22 |
| E189K | 1.1 |
| E189Q | 1.11 |
| E189F | 0.853 |
| E189M | 1.09 |
| E189P | 0.761 |
| E189T | 1.08 |
| E189H | 0.949 |

| Variant | THAP1 transcriptional activity |
| --- | --- |
| E189R | 0.881 |
| S194A | 0.876 |
| S194H | 1.2 |
| S194P | 1.22 |
| S194E | 1.11 |
| S194W | 1.09 |
| S194G | 1.35 |
| S194L | 0.808 |
| S194Q | 1.42 |
| S194M | 0.847 |
| S194R | 0.998 |
| S194V | 1.06 |
| S194C | 0.978 |
| S194T | 0.865 |
| D204L | 1.04 |
| D204C | 0.753 |
| D204S | 1.82 |
| D204H | 0.501 |
| D204W | 0.525 |
| D204R | 0.547 |
| D204T | 1.04 |
| D204A | 1.26 |
| D204K | 0.75 |
| D204V | 1.39 |

| Variant | THAP1 transcriptional activity |
| --- | --- |
| D204P | 0.777 |
| D204M | 0.901 |
| D204Y | 0.63 |
| D204Q | 0.749 |
| D204G | 0.311 |
| D204E | 1.22 |
| D204I | 0.437 |
| E195N | 0.808 |
| E195W | 0.467 |
| E195T | 0.674 |
| E195M | 0.781 |
| E195F | 0.67 |
| E195H | 0.381 |
| E195L | 0.714 |
| E195K | 1.37 |
| E195A | 0.865 |
| E195P | 0.704 |
| E195C | 0.903 |
| E195S | 1.16 |
| E195R | 1.03 |
| E195Y | 0.588 |
| E195D | 1.15 |
| E195G | 1.07 |
| E195V | 1.02 |

| Variant | THAP1 transcriptional activity |
| --- | --- |
| E195I | 0.587 |
| L201R | 0.9 |
| L201H | 0.804 |
| L201P | 0.855 |
| L201E | 0.953 |
| L201Q | 0.653 |
| L201F | 0.809 |
| L201N | 0.624 |
| L201T | 0.898 |
| L201V | 0.62 |
| L201G | 0.813 |
| L201W | 0.749 |
| L201S | 0.906 |
| L201D | 0.836 |
| L201M | 0.715 |
| L201Y | 0.773 |
| L201K | 0.887 |
| L201A | 0.829 |
| L201C | 1.03 |
| L201I | 0.905 |
| K188R | 1.34 |
| K188H | 0.646 |
| K188S | 0.937 |
| K188N | 1.03 |

| Variant | THAP1 transcriptional activity |
| --- | --- |
| K188E | 0.506 |
| K188Y | 0.683 |
| K188Q | 0.954 |
| K188M | 0.605 |
| K188C | 0.792 |
| K188P | 0.419 |
| K188G | 1.05 |
| K188I | 0.858 |
| K188A | 1.14 |
| K188L | 0.724 |
| K188V | 0.826 |
| Y205R | 0.621 |
| Y205D | 0.754 |
| Y205H | 1.38 |
| Y205P | 0.805 |
| Y205A | 1.86 |
| Y205F | 0.778 |
| Y205E | 1.09 |
| Y205S | 1.17 |
| Y205V | 0.976 |
| Y205C | 1.28 |
| Y205N | 0.989 |
| Y205L | 2.1 |
| Y205G | 1.84 |

| Variant | THAP1 transcriptional activity |
| --- | --- |
| Y205W | 2.45 |
| Y205M | 1.5 |
| Y205I | 1.07 |
| Y205K | 0.717 |
| Y205Q | 1.51 |
| I208A | 0.838 |
| D191C | 0.786 |
| D191H | 0.987 |
| D191M | 1.04 |
| D191E | 1.36 |
| D191I | 0.874 |
| D191Y | 0.661 |
| D191S | 1.21 |
| D191K | 1.22 |
| D191R | 1.31 |
| D191L | 1.26 |
| D191F | 0.695 |
| D191A | 1.23 |
| D191T | 1.12 |
| D191W | 1.06 |
| D191P | 1.02 |
| D191G | 1.05 |
| N203A | 1.28 |
| N203R | 0.497 |

| Variant | THAP1 transcriptional activity |
| --- | --- |
| N203V | 0.886 |
| N203D | 0.653 |
| N203F | 0.728 |
| N203H | 1.32 |
| N203E | 1.14 |
| N203Y | 1.02 |
| N203M | 0.934 |
| N203T | 1.15 |
| N203W | 0.535 |
| N203G | 1.23 |
| N203C | 0.834 |
| N203S | 1.54 |
| N203Q | 0.904 |
| N203I | 1.01 |
| N203P | 0.855 |
| F206T | 1.04 |
| F206H | 1.05 |
| F206S | 1.09 |
| F206I | 1.27 |
| F206V | 1.41 |
| F206R | 0.87 |
| F206Q | 0.86 |
| F206K | 1.08 |
| F206W | 1.27 |

| Variant | THAP1 transcriptional activity |
| --- | --- |
| F206P | 0.832 |
| F206C | 1.5 |
| F206Y | 1.21 |
| F206D | 1.24 |
| F206E | 1.11 |
| F206N | 0.873 |
| Y198M | 1.02 |
| Y198C | 0.806 |
| Y198F | 0.947 |
| Y198E | 1.15 |
| Y198G | 0.536 |
| Y198K | 0.631 |
| Y198L | 1.02 |
| Y198Q | 1.51 |
| Y198W | 0.672 |
| Y198V | 1.01 |
| Y198T | 1.13 |
| Y198I | 1.25 |
| Y198N | 1.66 |
| Y198R | 0.78 |
| Y198D | 0.763 |
| Y198P | 0.891 |
| P202Q | 0.911 |
| P202L | 0.884 |

| Variant | THAP1 transcriptional activity |
| --- | --- |
| P202T | 0.839 |
| P202K | 0.636 |
| P202C | 0.722 |
| P202G | 0.98 |
| P202E | 1.05 |
| P202A | 1.15 |
| P202I | 0.585 |
| P202W | 0.577 |
| P202H | 1.12 |
| P202F | 0.497 |
| P202R | 0.824 |
| P202N | 0.854 |
| P202M | 1.1 |
| P202S | 0.869 |
| P202Y | 1.04 |
| P202D | 0.802 |
| Q187F | 0.78 |
| Q187R | 1.03 |
| Q187V | 0.652 |
| Q187G | 0.874 |
| Q187N | 0.727 |
| Q187D | 0.783 |
| Q187P | 0.385 |
| Q187Y | 0.809 |

| Variant | THAP1 transcriptional activity |
| --- | --- |
| Q187T | 0.99 |
| Q187H | 0.853 |
| Q187L | 0.681 |
| Q187S | 1.45 |
| Q187E | 0.824 |
| Q187W | 0.568 |
| Q187I | 0.687 |
| Q187K | 0.719 |
| G197T | 1.41 |
| G197R | 0.711 |
| G197I | 1.03 |
| G197H | 1.76 |
| G197W | 1.8 |
| G197N | 1.56 |
| G197K | 1.33 |
| G197A | 1.19 |
| G197D | 0.656 |
| G197M | 1.03 |
| G197Q | 1.29 |
| G197V | 1.8 |
| G197E | 1 |
| G197P | 0.913 |
